Reference: US20190382455A1 (Sanofi, published 2019)

Columns and labels:
[1] = target: T1, MMP-9 proform (UniProt P14780 20-707); experiment: SPR (Biacore T200), biotinylated fusion molecule captured on CAP chip, MMP-9 proform as analyte
T1 construct: Used as analyte in SPR; also called proform MMP-9; proform MMP9

[2] = target: T2, activated MMP-9 (UniProt P14780 107-707, limits assumed); experiment: SPR (Biacore T200), biotinylated fusion molecule captured on CAP chip, activated MMP-9 as analyte
T2 construct: Used as analyte in SPR
T2 sequence (P14780 107-707 limits assumed): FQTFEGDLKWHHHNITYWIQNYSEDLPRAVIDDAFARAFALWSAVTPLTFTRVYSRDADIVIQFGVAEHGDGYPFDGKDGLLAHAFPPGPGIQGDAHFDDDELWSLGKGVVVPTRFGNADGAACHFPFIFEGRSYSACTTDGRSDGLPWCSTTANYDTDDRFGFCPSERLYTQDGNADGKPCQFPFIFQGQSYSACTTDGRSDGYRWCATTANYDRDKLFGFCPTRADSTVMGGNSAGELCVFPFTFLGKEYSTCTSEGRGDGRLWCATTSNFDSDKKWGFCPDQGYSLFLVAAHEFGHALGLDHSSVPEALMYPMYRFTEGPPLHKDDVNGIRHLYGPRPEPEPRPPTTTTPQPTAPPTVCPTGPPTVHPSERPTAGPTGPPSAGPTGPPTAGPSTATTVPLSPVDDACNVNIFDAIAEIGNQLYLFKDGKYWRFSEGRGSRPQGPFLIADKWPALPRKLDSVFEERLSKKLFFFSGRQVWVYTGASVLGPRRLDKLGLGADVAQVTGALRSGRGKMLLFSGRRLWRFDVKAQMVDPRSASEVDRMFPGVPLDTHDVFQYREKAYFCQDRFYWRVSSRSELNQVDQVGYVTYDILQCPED

T1 sequence (P14780 20-707 limits assumed): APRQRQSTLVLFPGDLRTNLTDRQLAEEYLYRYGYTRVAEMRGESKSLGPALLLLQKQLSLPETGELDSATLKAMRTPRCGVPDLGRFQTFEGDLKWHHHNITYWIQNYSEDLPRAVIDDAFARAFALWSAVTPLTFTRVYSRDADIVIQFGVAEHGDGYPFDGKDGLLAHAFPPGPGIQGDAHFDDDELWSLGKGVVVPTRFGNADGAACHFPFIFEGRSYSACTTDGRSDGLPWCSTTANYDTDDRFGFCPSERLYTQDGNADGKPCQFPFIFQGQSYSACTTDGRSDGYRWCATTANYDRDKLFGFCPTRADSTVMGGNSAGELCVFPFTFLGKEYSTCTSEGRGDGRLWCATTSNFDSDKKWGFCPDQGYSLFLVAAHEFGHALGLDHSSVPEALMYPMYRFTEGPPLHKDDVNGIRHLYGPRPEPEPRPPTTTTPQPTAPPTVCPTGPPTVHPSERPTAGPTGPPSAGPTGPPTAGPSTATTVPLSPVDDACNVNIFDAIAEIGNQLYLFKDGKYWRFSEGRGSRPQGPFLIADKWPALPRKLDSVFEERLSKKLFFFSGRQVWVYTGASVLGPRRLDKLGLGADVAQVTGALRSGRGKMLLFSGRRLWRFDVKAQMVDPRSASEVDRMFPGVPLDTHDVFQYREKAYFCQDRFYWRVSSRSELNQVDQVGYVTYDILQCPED

B1: fusion molecule of SEQ ID NO: 134 (designed binder)
chain: QDSTSDLIPAPPLSKVPLQQNFQDNQFQGKWYVVGVAGNTILREDKDPGKMNAAIYELKEDKSYDVTDVRFIRKKCHYYIDTFVPGSQPGEFTLGNIKSYPGTTSQLVRVVSTNYNQHAMVFFKIVRQNREIFWITLYGRTKELTSELKENFIRFSKSLGLPENHIVFPVPIDQCIDGGGGGSGGGGSQDSTSDLIPAPPLSKVPLQQNFQDNQFQGKWYVVGWAGNTALREDKDPPKMPAVIYELKEDKSYDVTDVQFPEKECIYSTITFVPGSQPGEFTLGGIKSSPGQTSHLVRVVSTNYNQHAMVFFKYVTQNREGFNIALYGRTKELTSELKENFIRFSKSLGLPENHIVFPVPIDQCIDGGGGGSGGGGSQDSTSDLIPAPPLSKVPLQQNFQDNQFQGKWYVVGEAGNLARREDKDPMKMMATIYELKEDKSYDVTEVRFRHKKCKYDIVTFVPGSQPGEFTLGLIKSDPGQTPELVRVVSTNYNQHAMVFFKKVVQNREYFWITLYGRTKELTSELKENFIRFSKSLGLPENHIVFPVPIDQCIDGGGGGSGGGGSQDSTSDLIPAPPLSKVPLQQNFQDNQFQGKWYVVGHAGNQWLREGRDPRKMWATIYELKEDKSYDVTDVDFAIKKCLYRITTFVPGSQPGEFTLGNIKSHPGGTSGLVRVVSTNYNQHAMVFFKFVIQNREAFFITLYGRTKELTSELKENFIRFSKSLGLPENHIVFPVPIDQCIDG
modifications: biotinylated with EZ-Link NHS-PEG4-Biotin for capture on the chip
notes: also called RA10680550
- binding result [1]: no binding (tested: ≥1 µM)
- binding result [2]: no binding (tested: ≥1 µM)
